Assay results: publication doi:10.1101/2024.05.10.593562 (bioRxiv, 2024)

Molecular target: HDAC1-FLAG (UniProt Q13547 1-482)
Test: AlphaScreen or HTRF

HDAC1-FLAG, sequence (Q13547 whole entry): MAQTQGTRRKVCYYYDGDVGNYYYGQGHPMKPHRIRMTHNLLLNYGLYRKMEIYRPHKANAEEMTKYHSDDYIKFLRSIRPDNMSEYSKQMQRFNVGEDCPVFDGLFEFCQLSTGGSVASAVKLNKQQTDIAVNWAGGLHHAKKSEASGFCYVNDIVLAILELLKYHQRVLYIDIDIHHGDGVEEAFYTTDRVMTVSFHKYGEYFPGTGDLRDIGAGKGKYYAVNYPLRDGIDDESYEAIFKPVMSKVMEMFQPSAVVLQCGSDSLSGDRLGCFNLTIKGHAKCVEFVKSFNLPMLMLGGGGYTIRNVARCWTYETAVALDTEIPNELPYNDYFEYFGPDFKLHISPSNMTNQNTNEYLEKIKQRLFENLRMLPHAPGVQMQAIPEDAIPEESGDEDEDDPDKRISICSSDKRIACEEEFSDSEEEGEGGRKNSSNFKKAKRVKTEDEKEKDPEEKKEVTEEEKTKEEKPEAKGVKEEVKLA

B1: GST-Rb 380-785 (domain or fragment)
chain: NTIQQLMMILNSASDQPSENLISYFNNCTVNPKESILKRVKDIGYIFKEKFAKAVGQGCVEIGSQRYKLGVRLYYRVMESMLKSEEERLSIQNFSKLLNDNIFHMSLLACALEVVMATYSRSTSQNLDSGTDLSFPWILNVLNLKAFDFYKVIESFIKAEGNLTREMIKHLERCEHRIMESLAWLSDSPLFDLIKQSKDREGPTDHLESACPLNLPLQNNHTAADMYLSPVRSPKKKGSTTRVNSTANAETQATSAFQTQKPLKSTSLSLFYKKVYRLAYLRLNTLCERLLSEHPELEHIIWTLFQHTLQNEYELMRDRHLDQIMMCSMYGICKVKNIDLKFKIIVTAYKDLPHAVQETFKRVLIKEEEYDSIIVFYNSVFMQRLKTNILQYASTRPPTLSPIPHI
- binding result: binds
